Measurements reported in article PMC7594496, “Combinatorial multivalent interactions drive cooperative assembly of the COPII coat” (The Journal of Cell Biology, 2020).

Molecular target: T1, Sec23–Sec24 complex (WT) (yeast (S. cerevisiae), UniProt P15303 1-768; P40482 1-926)
T1 construct: Sec23, COPII inner coat subunit, yeast; Co-expressed and co-purified complex; also called Sec23 and His-Sec24; inner coat; source: Sf9 cells (pFastbac), purified (HisTrap HP, HiTrap Q HP)
Assay: liposome flotation (coat recruitment to synthetic liposomes); purified Sar1 (15 µg/ml), Sec23–Sec24 (20 µg/ml), Sec13–Sec31 (30 µg/ml), 0.27 mM major/minor liposomes (0.4 µm), 0.1 mM GMP-PNP, HKM buffer pH 7.0, 30 min at 25°C; liposomes floated through sucrose; bound proteins by SDS-PAGE and SYPRO red
Settings: both partners purified

T1 sequence (P15303 whole entry, chain 1 of 2): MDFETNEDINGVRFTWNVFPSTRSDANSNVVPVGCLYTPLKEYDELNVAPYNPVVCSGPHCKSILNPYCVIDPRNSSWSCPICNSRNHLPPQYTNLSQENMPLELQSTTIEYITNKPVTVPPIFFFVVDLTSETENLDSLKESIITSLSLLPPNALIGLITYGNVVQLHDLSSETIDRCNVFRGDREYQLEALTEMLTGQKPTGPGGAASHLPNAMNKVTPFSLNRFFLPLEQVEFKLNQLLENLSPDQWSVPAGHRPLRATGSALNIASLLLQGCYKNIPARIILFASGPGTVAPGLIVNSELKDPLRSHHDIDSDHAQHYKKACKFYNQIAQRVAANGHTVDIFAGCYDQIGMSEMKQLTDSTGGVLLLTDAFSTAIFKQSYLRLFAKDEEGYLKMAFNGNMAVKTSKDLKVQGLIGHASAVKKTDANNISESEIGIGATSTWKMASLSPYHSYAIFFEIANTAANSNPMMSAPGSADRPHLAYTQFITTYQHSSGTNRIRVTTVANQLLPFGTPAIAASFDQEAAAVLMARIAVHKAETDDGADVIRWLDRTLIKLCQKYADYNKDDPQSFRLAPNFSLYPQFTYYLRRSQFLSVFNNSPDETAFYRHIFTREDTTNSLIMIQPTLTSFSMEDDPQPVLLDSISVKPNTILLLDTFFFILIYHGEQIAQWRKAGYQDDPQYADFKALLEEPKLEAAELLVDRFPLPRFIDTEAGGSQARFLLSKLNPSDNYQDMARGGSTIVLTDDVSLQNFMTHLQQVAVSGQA
T1 sequence (P40482 whole entry, chain 2 of 2): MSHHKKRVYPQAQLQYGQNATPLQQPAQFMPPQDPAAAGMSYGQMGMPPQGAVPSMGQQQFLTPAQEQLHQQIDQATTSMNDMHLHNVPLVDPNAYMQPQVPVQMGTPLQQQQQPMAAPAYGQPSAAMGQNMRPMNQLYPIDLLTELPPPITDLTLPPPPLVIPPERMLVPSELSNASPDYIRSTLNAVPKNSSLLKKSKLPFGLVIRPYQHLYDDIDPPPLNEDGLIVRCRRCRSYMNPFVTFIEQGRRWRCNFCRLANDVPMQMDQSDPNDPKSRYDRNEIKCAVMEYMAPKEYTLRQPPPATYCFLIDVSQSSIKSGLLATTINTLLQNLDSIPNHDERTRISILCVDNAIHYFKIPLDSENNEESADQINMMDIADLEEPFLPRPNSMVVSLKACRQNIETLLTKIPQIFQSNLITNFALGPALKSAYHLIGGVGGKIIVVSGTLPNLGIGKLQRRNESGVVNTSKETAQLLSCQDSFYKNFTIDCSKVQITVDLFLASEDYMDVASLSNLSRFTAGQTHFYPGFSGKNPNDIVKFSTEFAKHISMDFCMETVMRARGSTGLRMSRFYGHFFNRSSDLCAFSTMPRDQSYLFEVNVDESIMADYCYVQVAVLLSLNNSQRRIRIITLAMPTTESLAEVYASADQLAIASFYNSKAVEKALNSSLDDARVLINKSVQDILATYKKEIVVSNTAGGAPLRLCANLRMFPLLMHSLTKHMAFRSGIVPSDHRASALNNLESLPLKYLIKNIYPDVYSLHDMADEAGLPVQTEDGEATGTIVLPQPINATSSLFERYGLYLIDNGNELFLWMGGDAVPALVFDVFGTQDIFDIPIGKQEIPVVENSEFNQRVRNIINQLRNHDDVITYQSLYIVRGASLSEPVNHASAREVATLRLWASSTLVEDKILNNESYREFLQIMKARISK

B1: Sec13–Sec31 complex (WT) (complex, yeast (S. cerevisiae) | S. cerevisiae)
chain 1: MVVIANAHNELIHDAVLDYYGKRLATCSSDKTIKIFEVEGETHKLIDTLTGHEGPVWRVDWAHPKFGTILASCSYDGKVLIWKEENGRWSQIAVHAVHSASVNSVQWAPHEYGPLLLVASSDGKVSVVEFKENGTTSPIIIDAHAIGVNSASWAPATIEEDGEHNGTKESRKFVTGGADNLVKIWKYNSDAQTYVLESTLEGHSDWVRDVAWSPTVLLRSYLASVSQDRTCIIWTQDNEQGPWKKTLLKEEKFPDVLWRASWSLSGNVLALSGGDNKVTLWKENLEGKWEPAGEVHQ
chain 2: MVKLAEFSRTATFAWSHDKIPLLVSGTVSGTVDANFSTDSSLELWSLLAADSEKPIASLQVDSKFNDLDWSHNNKIIAGALDNGSLELYSTNEANNAINSMARFSNHSSSVKTVKFNAKQDNVLASGGNNGEIFIWDMNKCTESPSNYTPLTPGQSMSSVDEVISLAWNQSLAHVFASAGSSNFASIWDLKAKKEVIHLSYTSPNSGIKQQLSVVEWHPKNSTRVATATGSDNDPSILIWDLRNANTPLQTLNQGHQKGILSLDWCHQDEHLLLSSGRDNTVLLWNPESAEQLSQFPARGNWCFKTKFAPEAPDLFACASFDNKIEVQTLQNLTNTLDEQETETKQQESETDFWNNVSREESKEKPTVFHLQAPTWYGEPSPAAHWAFGGKLVQITPDGKGVSITNPKISGLESNTTLSEALKTKDFKPLINQRLVKVIDDVNEEDWNLLEKLSMDGTEEFLKEALAFDNDESDAQDDANNEKEDDGEEFFQQIETNFQPEGDFSLSGNIEQTISKNLVSGNIKSAVKNSLENDLLMEAMVIALDSNNERLKESVKNAYFAKYGSKSSLSRILYSISKREVDDLVENLDVSQWKFISKAIQNLYPNDIAQRNEMLIKLGDRLKENGHRQDSLTLYLAAGSLDKVASIWLSEFPDLEDKLKKDNKTIYEAHSECLTEFIERFTVFSNFINGSSTINNEQLIAKFLEFINLTTSTGNFELATEFLNSLPSDNEEVKTEKARVLIASGKSLPAQNPATATTSKAKYTNAKTNKNVPVLPTPGMPSTTSIPSMQAPFYGMTPGASANALPPKPYVPATTTSAPVHTEGKYAPPSQPSMASPFVNKTNSSTRLNSFAPPPNPYATATVPATNVSTTSIPQNTFAPIQPGMPIMGDYNAQSSSIPSQPPINAVSGQTPHLNRKANDGWNDLPLKVKEKPSRAKAVSVAPPNILSTPTPLNGIPANAASTMPPPPLSRAPSSVSMVSPPPLHKNSRVPSLVATSESPRASISNPYAPPQSSQQFPIGTISTANQTSNTAQVASSNPYAPPPQQRVATPLSGGVPPAPLPKASNPYAPTATTQPNGSSYPPTGPYTNNHTMTSPPPVFNKPPTGPPPISMKKRSNKLASIEQNPSQGATYPPTLSSSASPLQPSQPPTLASQVNTSAENVSHEIPADQQPIVDFLKEELARVTPLTPKEYSKQLKDCDKRLKILFYHLEKQDLLTQPTIDCLHDLVALMKEKKYKEAMVIHANIATNHAQEGGNWLTGVKRLIGIAEATLN
notes: Sec13, COPII outer coat subunit, yeast; Sec31, COPII outer coat subunit, S. cerevisiae; disordered proline-rich region defined as residues 764-1,174; also called outer coat; WT Sec31; source: Sf9 cells (pFastbac), purified (HisTrap HP, TEV cleavage of the 6xHis tag on Sec31, HiTrap Q HP); not shown: His6, N-terminal, cleaved
B1: binds.
